The test deals with T1, human FcγRIIb receptor protein (R&D Systems) (human, UniProt P31994 46-217).
T1 construct: Analyte injected over antibodies captured on a protein A/G chip (Biacore); also called CD32b
T1 sequence (looked up): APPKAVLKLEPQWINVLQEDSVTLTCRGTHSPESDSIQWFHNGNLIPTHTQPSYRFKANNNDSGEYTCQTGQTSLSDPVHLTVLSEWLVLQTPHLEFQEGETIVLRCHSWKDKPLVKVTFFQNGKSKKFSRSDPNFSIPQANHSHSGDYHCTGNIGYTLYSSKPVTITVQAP
The test can be described thus: SPR (Biacore). How it is done: Variants were screened for receptor affinity using Biacore™ technology, also referred to as Biacore herein, a surface plasmon resonance (SPR) based technology for studying biomolecular interactions in real time. SPR measurements were performed using a Biacore 3000 instrument (Biacore, Piscataway, N.J.). A protein A/G (Pierce Biotechnology) CM5 biosensor chip (Biacore) was generated using a standard primary amine coupling protocol. All measurements were performed using HBS-EP buffer (10 mM HEPES pH 7.4, 0.15 M NaCl, 3 mM EDTA, 0.005% vol/vol surfactant P20, Biacore). Antibodies at 20 nM or 50 nM in HBS-EP buffer were immobilized on the protein A/G surface and FcγRs were injected. After each cycle, the surface was regenerated by injecting glycine buffer (10 mM, pH 1.5). Data were processed by zeroing time and response before the injection of FcγR and by subtracting appropriate nonspecific signals (response of reference channel and injection of running buffer). Kinetic analyses were performed by global fitting of binding data with a 1:1 Langmuir binding model using BIAevaluation software (Biacore).
(In general: Surface plasmon resonance follows binding to a sensor surface in real time, without labels.)

B1: K326D/L328Y/I332E (antibody, human IgG1, kappa)
heavy: EVQLVESGGGLVKPGGSLKLSCAASGYTFTSYVMHWVRQAPGKGLEWIGYINPYNDGTKYNEKFQGRVTISSDKSISTAYMELSSLRSEDTAMYYCARGTYYYGTRVFDYWGQGTLVTVSSASTKGPSVFPLAPSSKSTSGGTAALGCLVKDYFPEPVTVSWNSGALTSGVHTFPAVLQSSGLYSLSSVVTVPSSSLGTQTYICNVNHKPSNTKVDKKVEPKSCDKTHTCPPCPAPELLGGPSVFLFPPKPKDTLMISRTPEVTCVVVDVSHEDPEVKFNWYVDGVEVHNAKTKPREEQYNSTYRVVSVLTVLHQDWLNGKEYKCKVSNDAYPAPEEKTISKAKGQPREPQVYTLPPSREEMTKNQVSLTCLVKGFYPSDIAVEWESNGQPENNYKTTPPVLDSDGSFFLYSKLTVDKSRWQQGNVFSCSVMHEALHNHYTQKSLSLSPGK
light: DIVMTQSPATLSLSPGERATLSCRSSKSLQNVNGNTYLYWFQQKPGQSPQLLIYRMSNLNSGVPDRFSGSGSGTEFTLTISSLEPEDFAVYYCMQHLEYPITFGAGTKLEIKRTVAAPSVFIFPPSDEQLKSGTASVVCLLNNFYPREAKVQWKVDNALQSGNSQESVTEQDSKDSTYSLSSTLTLSKADYEKHKVYACEVTHQGLSSPVTKSFNRGEC
notes: HuAM4G7 IgG1 Fc variant
On to B1, for which the “Fold FcγRIIb” value amounted to 2.65 fold.

B2: L234W/S239D/L328Y (antibody, human IgG1, kappa)
heavy: EVQLVESGGGLVKPGGSLKLSCAASGYTFTSYVMHWVRQAPGKGLEWIGYINPYNDGTKYNEKFQGRVTISSDKSISTAYMELSSLRSEDTAMYYCARGTYYYGTRVFDYWGQGTLVTVSSASTKGPSVFPLAPSSKSTSGGTAALGCLVKDYFPEPVTVSWNSGALTSGVHTFPAVLQSSGLYSLSSVVTVPSSSLGTQTYICNVNHKPSNTKVDKKVEPKSCDKTHTCPPCPAPEWLGGPDVFLFPPKPKDTLMISRTPEVTCVVVDVSHEDPEVKFNWYVDGVEVHNAKTKPREEQYNSTYRVVSVLTVLHQDWLNGKEYKCKVSNKAYPAPIEKTISKAKGQPREPQVYTLPPSREEMTKNQVSLTCLVKGFYPSDIAVEWESNGQPENNYKTTPPVLDSDGSFFLYSKLTVDKSRWQQGNVFSCSVMHEALHNHYTQKSLSLSPGK
light: DIVMTQSPATLSLSPGERATLSCRSSKSLQNVNGNTYLYWFQQKPGQSPQLLIYRMSNLNSGVPDRFSGSGSGTEFTLTISSLEPEDFAVYYCMQHLEYPITFGAGTKLEIKRTVAAPSVFIFPPSDEQLKSGTASVVCLLNNFYPREAKVQWKVDNALQSGNSQESVTEQDSKDSTYSLSSTLTLSKADYEKHKVYACEVTHQGLSSPVTKSFNRGEC
notes: HuAM4G7 IgG1 Fc variant
With B2, the “Fold FcγRIIb” value came out at 32.8 fold.

B3: K326W (antibody, human IgG1, kappa)
heavy: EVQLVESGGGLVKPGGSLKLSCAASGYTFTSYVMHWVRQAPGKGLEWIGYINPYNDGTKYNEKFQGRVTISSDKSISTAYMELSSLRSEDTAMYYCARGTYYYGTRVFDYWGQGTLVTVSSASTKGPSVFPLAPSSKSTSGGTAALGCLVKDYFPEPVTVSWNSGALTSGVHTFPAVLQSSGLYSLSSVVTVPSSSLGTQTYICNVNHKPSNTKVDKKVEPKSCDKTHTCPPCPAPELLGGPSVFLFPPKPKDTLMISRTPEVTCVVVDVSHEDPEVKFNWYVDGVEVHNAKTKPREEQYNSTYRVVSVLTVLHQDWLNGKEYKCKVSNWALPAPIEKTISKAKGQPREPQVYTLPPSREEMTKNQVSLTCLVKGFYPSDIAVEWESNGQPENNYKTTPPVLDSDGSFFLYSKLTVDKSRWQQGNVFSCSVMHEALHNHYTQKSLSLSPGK
light: DIVMTQSPATLSLSPGERATLSCRSSKSLQNVNGNTYLYWFQQKPGQSPQLLIYRMSNLNSGVPDRFSGSGSGTEFTLTISSLEPEDFAVYYCMQHLEYPITFGAGTKLEIKRTVAAPSVFIFPPSDEQLKSGTASVVCLLNNFYPREAKVQWKVDNALQSGNSQESVTEQDSKDSTYSLSSTLTLSKADYEKHKVYACEVTHQGLSSPVTKSFNRGEC
notes: HuAM4G7 IgG1 Fc variant
For B3, the “Fold FcγRIIb” value was determined as 3.04 fold.

B4: L235F/H268D/L328Y (antibody, human IgG1, kappa)
heavy: EVQLVESGGGLVKPGGSLKLSCAASGYTFTSYVMHWVRQAPGKGLEWIGYINPYNDGTKYNEKFQGRVTISSDKSISTAYMELSSLRSEDTAMYYCARGTYYYGTRVFDYWGQGTLVTVSSASTKGPSVFPLAPSSKSTSGGTAALGCLVKDYFPEPVTVSWNSGALTSGVHTFPAVLQSSGLYSLSSVVTVPSSSLGTQTYICNVNHKPSNTKVDKKVEPKSCDKTHTCPPCPAPELFGGPSVFLFPPKPKDTLMISRTPEVTCVVVDVSDEDPEVKFNWYVDGVEVHNAKTKPREEQYNSTYRVVSVLTVLHQDWLNGKEYKCKVSNKAYPAPIEKTISKAKGQPREPQVYTLPPSREEMTKNQVSLTCLVKGFYPSDIAVEWESNGQPENNYKTTPPVLDSDGSFFLYSKLTVDKSRWQQGNVFSCSVMHEALHNHYTQKSLSLSPGK
light: DIVMTQSPATLSLSPGERATLSCRSSKSLQNVNGNTYLYWFQQKPGQSPQLLIYRMSNLNSGVPDRFSGSGSGTEFTLTISSLEPEDFAVYYCMQHLEYPITFGAGTKLEIKRTVAAPSVFIFPPSDEQLKSGTASVVCLLNNFYPREAKVQWKVDNALQSGNSQESVTEQDSKDSTYSLSSTLTLSKADYEKHKVYACEVTHQGLSSPVTKSFNRGEC
notes: HuAM4G7 IgG1 Fc variant
As to B4, the “Fold FcγRIIb” value is 3.97 fold.

B5: L234W/H268D/L328Y (antibody, human IgG1, kappa)
heavy: EVQLVESGGGLVKPGGSLKLSCAASGYTFTSYVMHWVRQAPGKGLEWIGYINPYNDGTKYNEKFQGRVTISSDKSISTAYMELSSLRSEDTAMYYCARGTYYYGTRVFDYWGQGTLVTVSSASTKGPSVFPLAPSSKSTSGGTAALGCLVKDYFPEPVTVSWNSGALTSGVHTFPAVLQSSGLYSLSSVVTVPSSSLGTQTYICNVNHKPSNTKVDKKVEPKSCDKTHTCPPCPAPEWLGGPSVFLFPPKPKDTLMISRTPEVTCVVVDVSDEDPEVKFNWYVDGVEVHNAKTKPREEQYNSTYRVVSVLTVLHQDWLNGKEYKCKVSNKAYPAPIEKTISKAKGQPREPQVYTLPPSREEMTKNQVSLTCLVKGFYPSDIAVEWESNGQPENNYKTTPPVLDSDGSFFLYSKLTVDKSRWQQGNVFSCSVMHEALHNHYTQKSLSLSPGK
light: DIVMTQSPATLSLSPGERATLSCRSSKSLQNVNGNTYLYWFQQKPGQSPQLLIYRMSNLNSGVPDRFSGSGSGTEFTLTISSLEPEDFAVYYCMQHLEYPITFGAGTKLEIKRTVAAPSVFIFPPSDEQLKSGTASVVCLLNNFYPREAKVQWKVDNALQSGNSQESVTEQDSKDSTYSLSSTLTLSKADYEKHKVYACEVTHQGLSSPVTKSFNRGEC
notes: HuAM4G7 IgG1 Fc variant
Regarding B5, the “Fold FcγRIIb” value came out at 5.92 fold.

B6: L235D/S239D (antibody, human IgG1, kappa)
heavy: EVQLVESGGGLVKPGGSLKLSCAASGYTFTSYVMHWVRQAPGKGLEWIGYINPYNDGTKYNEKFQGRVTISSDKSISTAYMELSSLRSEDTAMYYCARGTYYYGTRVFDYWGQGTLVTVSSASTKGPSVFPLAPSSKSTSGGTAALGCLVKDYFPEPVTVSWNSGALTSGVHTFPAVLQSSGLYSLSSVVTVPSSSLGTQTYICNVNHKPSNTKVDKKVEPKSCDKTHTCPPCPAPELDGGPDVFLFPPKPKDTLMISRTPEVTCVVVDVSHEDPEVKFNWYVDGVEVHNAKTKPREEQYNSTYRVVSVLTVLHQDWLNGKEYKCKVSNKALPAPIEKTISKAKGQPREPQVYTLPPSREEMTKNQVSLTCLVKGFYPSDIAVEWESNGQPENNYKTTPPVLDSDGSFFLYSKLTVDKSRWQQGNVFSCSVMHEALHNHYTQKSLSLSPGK
light: DIVMTQSPATLSLSPGERATLSCRSSKSLQNVNGNTYLYWFQQKPGQSPQLLIYRMSNLNSGVPDRFSGSGSGTEFTLTISSLEPEDFAVYYCMQHLEYPITFGAGTKLEIKRTVAAPSVFIFPPSDEQLKSGTASVVCLLNNFYPREAKVQWKVDNALQSGNSQESVTEQDSKDSTYSLSSTLTLSKADYEKHKVYACEVTHQGLSSPVTKSFNRGEC
notes: HuAM4G7 IgG1 Fc variant
Turning to B6, the “Fold FcγRIIb” value was 4.11 fold.

B7: L234W/L328Y/I332E (antibody, human IgG1, kappa)
heavy: EVQLVESGGGLVKPGGSLKLSCAASGYTFTSYVMHWVRQAPGKGLEWIGYINPYNDGTKYNEKFQGRVTISSDKSISTAYMELSSLRSEDTAMYYCARGTYYYGTRVFDYWGQGTLVTVSSASTKGPSVFPLAPSSKSTSGGTAALGCLVKDYFPEPVTVSWNSGALTSGVHTFPAVLQSSGLYSLSSVVTVPSSSLGTQTYICNVNHKPSNTKVDKKVEPKSCDKTHTCPPCPAPEWLGGPSVFLFPPKPKDTLMISRTPEVTCVVVDVSHEDPEVKFNWYVDGVEVHNAKTKPREEQYNSTYRVVSVLTVLHQDWLNGKEYKCKVSNKAYPAPEEKTISKAKGQPREPQVYTLPPSREEMTKNQVSLTCLVKGFYPSDIAVEWESNGQPENNYKTTPPVLDSDGSFFLYSKLTVDKSRWQQGNVFSCSVMHEALHNHYTQKSLSLSPGK
light: DIVMTQSPATLSLSPGERATLSCRSSKSLQNVNGNTYLYWFQQKPGQSPQLLIYRMSNLNSGVPDRFSGSGSGTEFTLTISSLEPEDFAVYYCMQHLEYPITFGAGTKLEIKRTVAAPSVFIFPPSDEQLKSGTASVVCLLNNFYPREAKVQWKVDNALQSGNSQESVTEQDSKDSTYSLSSTLTLSKADYEKHKVYACEVTHQGLSSPVTKSFNRGEC
notes: HuAM4G7 IgG1 Fc variant
Turning to B7, the “Fold FcγRIIb” value came to 6.32 fold.

B8: L235F/L328Y/I332E (antibody, human IgG1, kappa)
heavy: EVQLVESGGGLVKPGGSLKLSCAASGYTFTSYVMHWVRQAPGKGLEWIGYINPYNDGTKYNEKFQGRVTISSDKSISTAYMELSSLRSEDTAMYYCARGTYYYGTRVFDYWGQGTLVTVSSASTKGPSVFPLAPSSKSTSGGTAALGCLVKDYFPEPVTVSWNSGALTSGVHTFPAVLQSSGLYSLSSVVTVPSSSLGTQTYICNVNHKPSNTKVDKKVEPKSCDKTHTCPPCPAPELFGGPSVFLFPPKPKDTLMISRTPEVTCVVVDVSHEDPEVKFNWYVDGVEVHNAKTKPREEQYNSTYRVVSVLTVLHQDWLNGKEYKCKVSNKAYPAPEEKTISKAKGQPREPQVYTLPPSREEMTKNQVSLTCLVKGFYPSDIAVEWESNGQPENNYKTTPPVLDSDGSFFLYSKLTVDKSRWQQGNVFSCSVMHEALHNHYTQKSLSLSPGK
light: DIVMTQSPATLSLSPGERATLSCRSSKSLQNVNGNTYLYWFQQKPGQSPQLLIYRMSNLNSGVPDRFSGSGSGTEFTLTISSLEPEDFAVYYCMQHLEYPITFGAGTKLEIKRTVAAPSVFIFPPSDEQLKSGTASVVCLLNNFYPREAKVQWKVDNALQSGNSQESVTEQDSKDSTYSLSSTLTLSKADYEKHKVYACEVTHQGLSSPVTKSFNRGEC
notes: HuAM4G7 IgG1 Fc variant
Consider B8, for which the “Fold FcγRIIb” value was 3.31 fold.

B9: K326E (antibody, human IgG1, kappa)
heavy: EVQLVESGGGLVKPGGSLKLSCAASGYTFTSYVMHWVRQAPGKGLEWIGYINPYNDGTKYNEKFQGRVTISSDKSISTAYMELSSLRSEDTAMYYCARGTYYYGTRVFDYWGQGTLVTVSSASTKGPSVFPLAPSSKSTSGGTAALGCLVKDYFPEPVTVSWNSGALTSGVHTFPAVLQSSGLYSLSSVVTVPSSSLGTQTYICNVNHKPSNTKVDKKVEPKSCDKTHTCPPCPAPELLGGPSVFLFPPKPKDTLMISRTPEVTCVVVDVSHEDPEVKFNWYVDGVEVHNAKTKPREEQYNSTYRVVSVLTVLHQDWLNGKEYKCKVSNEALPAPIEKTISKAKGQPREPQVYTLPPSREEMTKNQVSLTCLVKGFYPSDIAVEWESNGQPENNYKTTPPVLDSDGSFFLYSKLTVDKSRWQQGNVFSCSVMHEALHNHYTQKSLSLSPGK
light: DIVMTQSPATLSLSPGERATLSCRSSKSLQNVNGNTYLYWFQQKPGQSPQLLIYRMSNLNSGVPDRFSGSGSGTEFTLTISSLEPEDFAVYYCMQHLEYPITFGAGTKLEIKRTVAAPSVFIFPPSDEQLKSGTASVVCLLNNFYPREAKVQWKVDNALQSGNSQESVTEQDSKDSTYSLSSTLTLSKADYEKHKVYACEVTHQGLSSPVTKSFNRGEC
notes: HuAM4G7 IgG1 Fc variant
With B9, the “Fold FcγRIIb” value came out at 6.09 fold.

B10: L234E/H268D (antibody, human IgG1, kappa)
heavy: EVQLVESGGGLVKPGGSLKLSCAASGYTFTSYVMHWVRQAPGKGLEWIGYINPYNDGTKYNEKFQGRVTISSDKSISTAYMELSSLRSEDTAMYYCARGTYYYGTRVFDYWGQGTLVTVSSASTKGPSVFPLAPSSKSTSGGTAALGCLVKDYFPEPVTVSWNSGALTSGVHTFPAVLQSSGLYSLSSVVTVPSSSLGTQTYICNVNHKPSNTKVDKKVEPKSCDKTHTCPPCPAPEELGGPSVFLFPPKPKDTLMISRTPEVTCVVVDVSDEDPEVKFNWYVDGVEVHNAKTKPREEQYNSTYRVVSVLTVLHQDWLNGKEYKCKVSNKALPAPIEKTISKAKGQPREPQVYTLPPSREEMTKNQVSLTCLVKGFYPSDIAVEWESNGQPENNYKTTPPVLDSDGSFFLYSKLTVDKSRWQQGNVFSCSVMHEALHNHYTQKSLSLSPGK
light: DIVMTQSPATLSLSPGERATLSCRSSKSLQNVNGNTYLYWFQQKPGQSPQLLIYRMSNLNSGVPDRFSGSGSGTEFTLTISSLEPEDFAVYYCMQHLEYPITFGAGTKLEIKRTVAAPSVFIFPPSDEQLKSGTASVVCLLNNFYPREAKVQWKVDNALQSGNSQESVTEQDSKDSTYSLSSTLTLSKADYEKHKVYACEVTHQGLSSPVTKSFNRGEC
notes: HuAM4G7 IgG1 Fc variant
B10: the “Fold FcγRIIb” value stood at 5.89 fold.

B11: L234F/G236N (antibody, human IgG1, kappa)
heavy: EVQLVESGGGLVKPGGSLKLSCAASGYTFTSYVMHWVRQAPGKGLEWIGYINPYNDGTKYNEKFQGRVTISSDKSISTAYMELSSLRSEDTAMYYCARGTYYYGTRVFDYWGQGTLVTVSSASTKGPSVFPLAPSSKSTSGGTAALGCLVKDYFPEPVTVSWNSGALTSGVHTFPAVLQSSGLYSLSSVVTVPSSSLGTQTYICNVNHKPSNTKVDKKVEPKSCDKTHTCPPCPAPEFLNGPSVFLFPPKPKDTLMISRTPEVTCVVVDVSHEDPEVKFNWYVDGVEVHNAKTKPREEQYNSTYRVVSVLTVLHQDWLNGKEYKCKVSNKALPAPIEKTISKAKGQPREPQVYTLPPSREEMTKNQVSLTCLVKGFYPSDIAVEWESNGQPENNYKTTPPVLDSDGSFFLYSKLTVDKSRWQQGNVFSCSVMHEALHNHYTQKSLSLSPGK
light: DIVMTQSPATLSLSPGERATLSCRSSKSLQNVNGNTYLYWFQQKPGQSPQLLIYRMSNLNSGVPDRFSGSGSGTEFTLTISSLEPEDFAVYYCMQHLEYPITFGAGTKLEIKRTVAAPSVFIFPPSDEQLKSGTASVVCLLNNFYPREAKVQWKVDNALQSGNSQESVTEQDSKDSTYSLSSTLTLSKADYEKHKVYACEVTHQGLSSPVTKSFNRGEC
notes: HuAM4G7 IgG1 Fc variant
Consider B11, for which the binding result is given as “no binding”.

For the origin of these results see patent US20170355766A1 (Xencor, published 2017).
